Experiment [1] addresses T1, formyl peptide receptor 2 (FPR2) (UniProt P25090 1-351, limits assumed).
T1 sequence (looked up): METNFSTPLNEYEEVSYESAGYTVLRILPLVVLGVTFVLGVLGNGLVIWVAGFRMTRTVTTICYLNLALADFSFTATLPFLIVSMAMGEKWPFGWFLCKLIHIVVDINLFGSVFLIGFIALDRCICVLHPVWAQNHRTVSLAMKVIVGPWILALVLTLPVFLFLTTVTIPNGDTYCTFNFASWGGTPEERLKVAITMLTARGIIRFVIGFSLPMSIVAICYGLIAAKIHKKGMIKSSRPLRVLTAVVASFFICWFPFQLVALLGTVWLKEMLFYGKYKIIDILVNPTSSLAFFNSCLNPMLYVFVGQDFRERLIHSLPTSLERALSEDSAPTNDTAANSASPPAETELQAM
Briefly: cell-based or functional assay.

The target of a further experiment is T2, FPR1 (UniProt P21462 1-350, limits assumed).
T2 sequence (looked up): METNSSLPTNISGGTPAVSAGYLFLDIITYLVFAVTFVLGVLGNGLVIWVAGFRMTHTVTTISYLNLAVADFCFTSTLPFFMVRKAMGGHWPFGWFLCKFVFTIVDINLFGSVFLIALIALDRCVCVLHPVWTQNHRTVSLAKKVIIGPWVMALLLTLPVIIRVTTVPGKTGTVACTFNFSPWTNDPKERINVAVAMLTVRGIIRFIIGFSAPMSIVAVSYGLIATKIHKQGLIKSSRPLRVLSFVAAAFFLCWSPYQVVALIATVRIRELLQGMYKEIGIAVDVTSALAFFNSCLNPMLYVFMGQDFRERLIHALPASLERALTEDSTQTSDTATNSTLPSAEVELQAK
Briefly: cell-based or functional assay.

These results are taken from patent US20250361268A1, “NOVEL ANTI-INFLAMMATORY PEPTIDE AND USE THEREOF” (NOVACELL TECHNOLOGY INC., priority 2022, published 2025).

B1: peptide of SEQ ID NO 114 (peptide)
peptide: MKYWPM
HELM: PEPTIDE1{[ac].M.K.Y.W.P.[dM].[am]}$$$$V2.0
SMILES: CSCC[C@H](NC(C)=O)C(=O)N[C@@H](CCCCN)C(=O)N[C@@H](Cc1ccc(O)cc1)C(=O)N[C@@H](Cc1c[nH]c2ccccc12)C(=O)N1CCC[C@H]1C(=O)N[C@H](CCSC)C(N)=O
For B1, the “EC50 for [Ca2+]” value in experiment [1] is < 10 nM.

B2: peptide of SEQ ID NO 119 (peptide)
peptide: RMRYYPM
HELM: PEPTIDE1{[ac].R.M.R.Y.Y.P.[dM].[am]}$$$$V2.0
SMILES: CSCC[C@H](NC(=O)[C@H](CCCNC(=N)N)NC(C)=O)C(=O)N[C@@H](CCCNC(=N)N)C(=O)N[C@@H](Cc1ccc(O)cc1)C(=O)N[C@@H](Cc1ccc(O)cc1)C(=O)N1CCC[C@H]1C(=O)N[C@H](CCSC)C(N)=O
Consider B2, for which, in experiment [1], the “EC50 for [Ca2+]” value was < 10 nM.

B3: peptide of SEQ ID NO 5 (peptide)
peptide: RMRYKVM
HELM: PEPTIDE1{R.M.R.Y.K.V.[dM].[am]}$$$$V2.0; N-terminus assumed
SMILES: CSCC[C@H](NC(=O)[C@@H](N)CCCNC(=N)N)C(=O)N[C@@H](CCCNC(=N)N)C(=O)N[C@@H](Cc1ccc(O)cc1)C(=O)N[C@@H](CCCCN)C(=O)N[C@H](C(=O)N[C@H](CCSC)C(N)=O)C(C)C
For the molecule B3, the “EC50 for [Ca2+]” value was > 10000 nM with FPR1 and < 10 nM in experiment [1].

B4: peptide of SEQ ID NO 137 (peptide)
peptide: IKYKVM
HELM: PEPTIDE1{[CCCCCCCC(=O)[*:2]].I.K.Y.K.V.[dM].[am]}$$$$V2.0
SMILES: CCCCCCCC(=O)N[C@H](C(=O)N[C@@H](CCCCN)C(=O)N[C@@H](Cc1ccc(O)cc1)C(=O)N[C@@H](CCCCN)C(=O)N[C@H](C(=O)N[C@H](CCSC)C(N)=O)C(C)C)[C@@H](C)CC
Consider B4, for which, in experiment [1], the “EC50 for [Ca2+]” value was < 10 nM.

B5: peptide of SEQ ID NO 45 (peptide)
peptide: HMRYKYM
HELM: PEPTIDE1{[CCCC(=O)[*:2]].H.M.R.Y.K.Y.[dM].[am]}$$$$V2.0
SMILES: CCCC(=O)N[C@@H](Cc1c[nH]cn1)C(=O)N[C@@H](CCSC)C(=O)N[C@@H](CCCNC(=N)N)C(=O)N[C@@H](Cc1ccc(O)cc1)C(=O)N[C@@H](CCCCN)C(=O)N[C@@H](Cc1ccc(O)cc1)C(=O)N[C@H](CCSC)C(N)=O
In the case of B5, the “EC50 for [Ca2+]” value with FPR1 is > 10000 nM; in experiment [1], < 10 nM.

B6: peptide of SEQ ID NO 150 (peptide)
peptide: HKYWPM
HELM: PEPTIDE1{[ac].H.K.Y.W.P.[dM].[am]}$$$$V2.0
SMILES: CSCC[C@@H](NC(=O)[C@@H]1CCCN1C(=O)[C@H](Cc1c[nH]c2ccccc12)NC(=O)[C@H](Cc1ccc(O)cc1)NC(=O)[C@H](CCCCN)NC(=O)[C@H](Cc1c[nH]cn1)NC(C)=O)C(N)=O
As to B6, the “EC50 for [Ca2+]” value in experiment [1] was < 10 nM.

B7: peptide of SEQ ID NO 1 (peptide)
peptide: RWRYKVM
HELM: PEPTIDE1{R.W.R.Y.K.V.[dM].[am]}$$$$V2.0; N-terminus assumed
SMILES: CSCC[C@@H](NC(=O)[C@@H](NC(=O)[C@H](CCCCN)NC(=O)[C@H](Cc1ccc(O)cc1)NC(=O)[C@H](CCCNC(=N)N)NC(=O)[C@H](Cc1c[nH]c2ccccc12)NC(=O)[C@@H](N)CCCNC(=N)N)C(C)C)C(N)=O
B7: the entries for the “EC50 for [Ca2+]” value (in the experiment with FPR1; in experiment [1]) were > 10000 nM and < 10 nM, respectively.

B8: peptide of SEQ ID NO 115 (peptide)
peptide: MKYWPM
HELM: PEPTIDE1{[CCCC(=O)[*:2]].M.K.Y.W.P.[dM].[am]}$$$$V2.0
SMILES: CCCC(=O)N[C@@H](CCSC)C(=O)N[C@@H](CCCCN)C(=O)N[C@@H](Cc1ccc(O)cc1)C(=O)N[C@@H](Cc1c[nH]c2ccccc12)C(=O)N1CCC[C@H]1C(=O)N[C@H](CCSC)C(N)=O
Regarding B8, the “EC50 for [Ca2+]” value in experiment [1] was < 10 nM.

B9: peptide of SEQ ID NO 120 (peptide)
peptide: MRYYPM
HELM: PEPTIDE1{M.R.Y.Y.P.[dM].[am]}$$$$V2.0; N-terminus assumed
SMILES: CSCC[C@H](N)C(=O)N[C@@H](CCCNC(=N)N)C(=O)N[C@@H](Cc1ccc(O)cc1)C(=O)N[C@@H](Cc1ccc(O)cc1)C(=O)N1CCC[C@H]1C(=O)N[C@H](CCSC)C(N)=O
For the molecule B9, the “EC50 for [Ca2+]” value in experiment [1] is < 10 nM.

B10: peptide of SEQ ID NO 118 (peptide)
peptide: WRYWPM
HELM: PEPTIDE1{W.R.Y.W.P.[dM].[am]}$$$$V2.0; N-terminus assumed
SMILES: CSCC[C@@H](NC(=O)[C@@H]1CCCN1C(=O)[C@H](Cc1c[nH]c2ccccc12)NC(=O)[C@H](Cc1ccc(O)cc1)NC(=O)[C@H](CCCNC(=N)N)NC(=O)[C@@H](N)Cc1c[nH]c2ccccc12)C(N)=O
Regarding B10, the “EC50 for [Ca2+]” value in experiment [1] was < 10 nM.

B11: peptide of SEQ ID NO 4 (peptide)
peptide: KWKYKVM
HELM: PEPTIDE1{[ac].K.W.K.Y.K.V.[dM].[am]}$$$$V2.0
SMILES: CSCC[C@@H](NC(=O)[C@@H](NC(=O)[C@H](CCCCN)NC(=O)[C@H](Cc1ccc(O)cc1)NC(=O)[C@H](CCCCN)NC(=O)[C@H](Cc1c[nH]c2ccccc12)NC(=O)[C@H](CCCCN)NC(C)=O)C(C)C)C(N)=O
As for B11, the “EC50 for [Ca2+]” value with FPR1 was > 10000 nM; in experiment [1] it was < 10 nM.

B12: peptide of SEQ ID NO 121 (peptide)
peptide: RWRYYPM
HELM: PEPTIDE1{[ac].R.W.R.Y.Y.P.[dM].[am]}$$$$V2.0
SMILES: CSCC[C@@H](NC(=O)[C@@H]1CCCN1C(=O)[C@H](Cc1ccc(O)cc1)NC(=O)[C@H](Cc1ccc(O)cc1)NC(=O)[C@H](CCCNC(=N)N)NC(=O)[C@H](Cc1c[nH]c2ccccc12)NC(=O)[C@H](CCCNC(=N)N)NC(C)=O)C(N)=O
B12: in experiment [1], the “EC50 for [Ca2+]” value is < 10 nM.

B13: peptide of SEQ ID NO 151 (peptide)
peptide: HKYWPM
HELM: PEPTIDE1{[CCCC(=O)[*:2]].H.K.Y.W.P.[dM].[am]}$$$$V2.0
SMILES: CCCC(=O)N[C@@H](Cc1c[nH]cn1)C(=O)N[C@@H](CCCCN)C(=O)N[C@@H](Cc1ccc(O)cc1)C(=O)N[C@@H](Cc1c[nH]c2ccccc12)C(=O)N1CCC[C@H]1C(=O)N[C@H](CCSC)C(N)=O
For B13, the “EC50 for [Ca2+]” value in experiment [1] was < 10 nM.

B14: peptide of SEQ ID NO 122 (peptide)
peptide: WRYYPM
HELM: PEPTIDE1{[ac].W.R.Y.Y.P.[dM].[am]}$$$$V2.0
SMILES: CSCC[C@@H](NC(=O)[C@@H]1CCCN1C(=O)[C@H](Cc1ccc(O)cc1)NC(=O)[C@H](Cc1ccc(O)cc1)NC(=O)[C@H](CCCNC(=N)N)NC(=O)[C@H](Cc1c[nH]c2ccccc12)NC(C)=O)C(N)=O
For the molecule B14, the “EC50 for [Ca2+]” value in experiment [1] is < 10 nM.

B15: peptide of SEQ ID NO 14 (peptide)
peptide: MRYKVM
HELM: PEPTIDE1{[ac].M.R.Y.K.V.[dM].[am]}$$$$V2.0
SMILES: CSCC[C@H](NC(C)=O)C(=O)N[C@@H](CCCNC(=N)N)C(=O)N[C@@H](Cc1ccc(O)cc1)C(=O)N[C@@H](CCCCN)C(=O)N[C@H](C(=O)N[C@H](CCSC)C(N)=O)C(C)C
As for B15, the “EC50 for [Ca2+]” value in experiment [1] was < 10 nM.

B16: peptide of SEQ ID NO 47 (peptide)
peptide: PMRYKYM
HELM: PEPTIDE1{[CCCC(=O)[*:2]].P.M.R.Y.K.Y.[dM].[am]}$$$$V2.0
SMILES: CCCC(=O)N1CCC[C@H]1C(=O)N[C@@H](CCSC)C(=O)N[C@@H](CCCNC(=N)N)C(=O)N[C@@H](Cc1ccc(O)cc1)C(=O)N[C@@H](CCCCN)C(=O)N[C@@H](Cc1ccc(O)cc1)C(=O)N[C@H](CCSC)C(N)=O
With B16, the results for the “EC50 for [Ca2+]” value (with FPR1; in experiment [1]) were > 10000 nM and < 10 nM, respectively.

B17: peptide of SEQ ID NO 117 (peptide)
peptide: RWRYWPM
HELM: PEPTIDE1{[ac].R.W.R.Y.W.P.[dM].[am]}$$$$V2.0
SMILES: CSCC[C@@H](NC(=O)[C@@H]1CCCN1C(=O)[C@H](Cc1c[nH]c2ccccc12)NC(=O)[C@H](Cc1ccc(O)cc1)NC(=O)[C@H](CCCNC(=N)N)NC(=O)[C@H](Cc1c[nH]c2ccccc12)NC(=O)[C@H](CCCNC(=N)N)NC(C)=O)C(N)=O
B17: in experiment [1], the “EC50 for [Ca2+]” value was < 10 nM.

B18: peptide of SEQ ID NO 46 (peptide)
peptide: PMRYKYM
HELM: PEPTIDE1{P.M.R.Y.K.Y.[dM].[am]}$$$$V2.0; N-terminus assumed
SMILES: CSCC[C@H](NC(=O)[C@@H]1CCCN1)C(=O)N[C@@H](CCCNC(=N)N)C(=O)N[C@@H](Cc1ccc(O)cc1)C(=O)N[C@@H](CCCCN)C(=O)N[C@@H](Cc1ccc(O)cc1)C(=O)N[C@H](CCSC)C(N)=O
Take B18: the “EC50 for [Ca2+]” value with FPR1 is > 10000 nM; in experiment [1], < 10 nM.

B19: peptide of SEQ ID NO 31 (peptide)
peptide: HMRYRVM
HELM: PEPTIDE1{H.M.R.Y.R.V.[dM].[am]}$$$$V2.0; N-terminus assumed
SMILES: CSCC[C@H](NC(=O)[C@@H](N)Cc1c[nH]cn1)C(=O)N[C@@H](CCCNC(=N)N)C(=O)N[C@@H](Cc1ccc(O)cc1)C(=O)N[C@@H](CCCNC(=N)N)C(=O)N[C@H](C(=O)N[C@H](CCSC)C(N)=O)C(C)C
On to B19, for which the “EC50 for [Ca2+]” value in experiment [1] is < 10 nM.
